Measurements as given in patent US6485936.

Legend:
[1] = molecular target: GST-HSF2N96 (human) (UniProt Q03933); assay: GST pull-down; 35S-labeled in vitro translated protein on GST-fusion glutathione-Sepharose, SDS-PAGE, autoradiography, BAS2000 quantification
[2] = molecular target: GST-HSF1N101 (human) (UniProt Q00613); assay: as above
GST-HSF1N101 (human), sequence (Q00613 101-529): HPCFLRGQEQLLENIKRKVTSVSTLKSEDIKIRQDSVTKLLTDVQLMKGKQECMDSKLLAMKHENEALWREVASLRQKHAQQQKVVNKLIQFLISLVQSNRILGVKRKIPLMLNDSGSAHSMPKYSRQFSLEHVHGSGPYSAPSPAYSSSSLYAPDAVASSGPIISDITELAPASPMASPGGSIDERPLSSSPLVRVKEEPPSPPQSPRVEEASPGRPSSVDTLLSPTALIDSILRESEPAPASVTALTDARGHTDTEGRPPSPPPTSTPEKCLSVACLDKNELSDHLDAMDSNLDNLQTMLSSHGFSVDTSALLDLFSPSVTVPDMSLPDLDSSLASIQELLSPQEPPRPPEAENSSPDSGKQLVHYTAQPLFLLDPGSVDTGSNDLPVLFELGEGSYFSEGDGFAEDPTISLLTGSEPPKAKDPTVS

GST-HSF2N96 (human), sequence (Q03933 96-536): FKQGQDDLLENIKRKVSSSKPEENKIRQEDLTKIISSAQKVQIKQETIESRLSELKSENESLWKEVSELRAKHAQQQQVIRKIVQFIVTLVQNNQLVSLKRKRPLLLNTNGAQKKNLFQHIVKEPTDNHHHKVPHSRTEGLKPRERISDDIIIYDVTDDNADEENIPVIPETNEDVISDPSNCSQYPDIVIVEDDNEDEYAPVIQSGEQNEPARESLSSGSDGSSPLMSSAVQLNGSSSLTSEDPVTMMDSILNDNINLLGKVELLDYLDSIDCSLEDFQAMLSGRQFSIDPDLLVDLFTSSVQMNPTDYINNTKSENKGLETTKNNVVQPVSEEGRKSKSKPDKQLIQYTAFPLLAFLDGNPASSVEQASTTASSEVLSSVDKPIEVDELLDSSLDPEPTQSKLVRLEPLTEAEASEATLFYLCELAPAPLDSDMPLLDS

proportion of bound HSF2BP (% of the level of input) (% of the level of input) [1]: 7.9 | proportion of bound HSF2BP (% of the level of input) (% of the level of input) [2]: 8.5
B1: HSF2 binding protein (HSF2BP), in vitro translated, 35S-methionine-labeled (protein)
chain: MGEAGAAEEACRHMGTKEEFVKVRKKDLERLTTEVMQIRDFLPRILNGEVLESFQKLKIVEKNLERKEQELEQLKMDCEHFKARLETVQADNIREKKEKLALRQQLNEAKQQLLQQAEYCTEMGAAACTLLWGVSSSEEVVKAILGGDKALKFFSITGQTMESFVKSLDGDVQELDSDESQFVFALAGIVTNVAAIACGREFLVNSSRVLLDTILQLLGDLKPGQCTKLKVLMLMSLYNVSINLKGLKYISESPGFIPLLWWLLSDPDAEVCLHVLRLVQSVVLEPEVFSKSASEFRSSLPLQRILAMSKSRNPRLQTAAQELLEDLRTLEHNV
modifications: 35S-methionine label
